Results on one protein are retold here after paper PMC4409540 (Nature, 2015).

This data set concerns the molecule itself. In words: cryo-EM structure.

A word on the stoichiometry N: it is the number of molecules, sites or subunits per partner or assembly.

B1: MBP-tagged human TRPA1 (full-length) (natural protein, UniProt O75762 1-1119, looked up)
chain: MKRSLRKMWRPGEKKEPQGVVYEDVPDDTEDFKESLKVVFEGSAYGLQNFNKQKKLKRCDDMDTFFLHYAAAEGQIELMEKITRDSSLEVLHEMDDYGNTPLHCAVEKNQIESVKFLLSRGANPNLRNFNMMAPLHIAVQGMNNEVMKVLLEHRTIDVNLEGENGNTAVIIACTTNNSEALQILLKKGAKPCKSNKWGCFPIHQAAFSGSKECMEIILRFGEEHGYSRQLHINFMNNGKATPLHLAVQNGDLEMIKMCLDNGAQIDPVEKGRCTAIHFAATQGATEIVKLMISSYSGSVDIVNTTDGCHETMLHRASLFDHHELADYLISVGADINKIDSEGRSPLILATASASWNIVNLLLSKGAQVDIKDNFGRNFLHLTVQQPYGLKNLRPEFMQMQQIKELVMDEDNDGCTPLHYACRQGGPGSVNNLLGFNVSIHSKSKDKKSPLHFAASYGRINTCQRLLQDISDTRLLNEGDLHGMTPLHLAAKNGHDKVVQLLLKKGALFLSDHNGWTALHHASMGGYTQTMKVILDTNLKCTDRLDEDGNTALHFAAREGHAKAVALLLSHNADIVLNKQQASFLHLALHNKRKEVVLTIIRSKRWDECLKIFSHNSPGNKCPITEMIEYLPECMKVLLDFCMLHSTEDKSCRDYYIEYNFKYLQCPLEFTKKTPTQDVIYEPLTALNAMVQNNRIELLNHPVCKEYLLMKWLAYGFRAHMMNLGSYCLGLIPMTILVVNIKPGMAFNSTGIINETSDHSEILDTTNSYLIKTCMILVFLSSIFGYCKEAGQIFQQKRNYFMDISNVLEWIIYTTGIIFVLPLFVEIPAHLQWQCGAIAVYFYWMNFLLYLQRFENCGIFIVMLEVILKTLLRSTVVFIFLLLAFGLSFYILLNLQDPFSSPLLSIIQTFSMMLGDINYRESFLEPYLRNELAHPVLSFAQLVSFTIFVPIVLMNLLIGLAVGDIAEVQKHASLKRIAMQVELHTSLEKKLPLWFLRKVDQKSTIVYPNKPRSGGMLFHIFCFLFCTGEIRQEIPNADKSLEMEILKQKYRLKDLTFLLEKQHELIKLIIQKMEIISETEDDDSHCSFQDRFKKEQMEQRNSRWNTVLRAVKAKTHHLEP
Turning to B1, the “stoichiometry N” value was found to be 4.
